Assay results published in US20200297837A1.
Like-named read-outs stand apart in the source and are kept apart here.

B1: MBt derived peptide … (SEQ ID NO: 15) (peptide)
peptide: VMATRRNVL
modifications: not checked
B2: HIV-1 Gag derived peptide … (SEQ ID NO: 3) (peptide)
peptide: TALSEGATP
modifications: not checked
B3: HIV-1 Gag derived peptide … (SEQ ID NO: 1) (peptide)
peptide: RMYSPVSIL
modifications: not checked
B4: HIV-1 Pol derived peptide … (SEQ ID NO: 16) (peptide)
peptide: PEIVIYDYM
modifications: not checked
B5: HIV-1 Pol derived peptide … (SEQ ID NO: 17) (peptide)
peptide: RIRTWKSLV
modifications: not checked

Tests used:
[1] = target: T1, HLA-E*01033 on the HLA-E*01033-transfected derivative of the K562 cell line (human), P13747
[2] = target: T1, HLA-E*01033 on the …; assay: HLA-E stabilization assay on K562/HLA-E cells, overnight 26 C, anti-HLA-E mAb staining, flow cytometry (without peptide: 1400)

Binder	MFI [1]	MFI [2]
B1	7520 MFI	–
B2	–	8530 MFI
B3	–	8240 MFI
B4	7320 MFI	–
B5	–	6580 MFI
